Article doi:10.1101/390674 (bioRxiv, 2018)

Target: ribosomal protein uL16 (Escherichia coli (strain MRE600), UniProt P0ADY7 1-136)
Assay: cryo-EM structure

- binding result: binds
B1: initiation factor 2, γ-isoform (natural protein)
chain: not shown
